In one assay the target is T1, Dyn1a^WT-eGFP (UniProt Q05193 1-864).
T1 construct: dynamin-1 cDNA, C-terminal splice variant "a" (Dyn1a), in the retroviral vector pMIEG; also called Dyn1a-eGFP; Dyn1-eGFP; source: A549 Dyn1^KO cells, retroviral transduction, in lysate (post-nuclear fraction); not shown: eGFP, C-terminal, kept
T1 sequence (looked up): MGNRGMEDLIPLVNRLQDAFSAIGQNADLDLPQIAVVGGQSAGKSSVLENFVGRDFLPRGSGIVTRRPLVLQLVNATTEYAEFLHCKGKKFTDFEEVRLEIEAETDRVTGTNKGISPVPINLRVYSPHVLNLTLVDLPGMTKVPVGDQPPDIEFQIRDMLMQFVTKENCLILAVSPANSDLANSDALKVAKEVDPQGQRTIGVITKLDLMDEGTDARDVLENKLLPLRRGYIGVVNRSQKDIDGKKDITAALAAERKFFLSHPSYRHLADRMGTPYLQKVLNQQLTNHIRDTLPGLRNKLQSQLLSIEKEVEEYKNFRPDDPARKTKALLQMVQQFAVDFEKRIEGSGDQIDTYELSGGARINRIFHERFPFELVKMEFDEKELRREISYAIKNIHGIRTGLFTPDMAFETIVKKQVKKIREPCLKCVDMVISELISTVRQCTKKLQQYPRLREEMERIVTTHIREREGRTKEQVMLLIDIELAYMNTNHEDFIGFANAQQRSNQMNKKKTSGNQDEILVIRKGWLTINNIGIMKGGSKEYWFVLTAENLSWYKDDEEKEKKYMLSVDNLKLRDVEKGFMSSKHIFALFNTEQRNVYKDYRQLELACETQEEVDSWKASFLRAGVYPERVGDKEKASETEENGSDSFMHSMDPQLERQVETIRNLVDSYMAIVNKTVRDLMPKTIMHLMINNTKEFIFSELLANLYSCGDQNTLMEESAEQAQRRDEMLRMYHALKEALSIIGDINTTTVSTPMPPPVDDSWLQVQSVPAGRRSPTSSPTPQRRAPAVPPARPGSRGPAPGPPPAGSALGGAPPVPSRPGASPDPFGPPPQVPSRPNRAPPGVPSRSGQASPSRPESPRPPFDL
In words: co-IP; GFP-nAb agarose, 0.5 mg A549 post-nuclear fraction, 2 h at 4 °C; beads washed with buffer 3 (0.5% Triton X-100, 25 mM HEPES, 150 mM KCl, 1 mM MgCl2, 2 mM EGTA, pH 7.4); immunoblot. To be noted: partners not purified.

In another assay the target is T2, Dyn1a^S774/8A-eGFP (UniProt Q05193 1-864, S774/8A | S774/8A).
T2 construct: dynamin-1 cDNA, C-terminal splice variant "a" (Dyn1a), in the retroviral vector pMIEG, with S774 and S778 changed to alanine; also called Dyn1^S774/8A-eGFP; Dyn1^S774/8A; source: A549 Dyn1^KO cells, retroviral transduction, in lysate (post-nuclear fraction); not shown: eGFP, C-terminal, kept
T2 sequence (looked up): T1 sequence (looked up) with S774A, S778A
Described as above. To be noted: partners not purified.

Substitutions are numbered along the chain they refer to.

B1: sorting nexin 9, endogenous in A549 cells (natural protein, human (endogenous in A549), UniProt Q9Y5X1 1-595, looked up)
chain: MATKARVMYDFAAEPGNNELTVNEGEIITITNPDVGGGWLEGRNIKGERGLVPTDYVEILPSDGKDQFSCGNSVADQAFLDSLSASTAQASSSAASNNHQVGSGNDPWSAWSASKSGNWESSEGWGAQPEGAGAQRNTNTPNNWDTAFGHPQAYQGPATGDDDDWDEDWDGPKSSSYFKDSESADAGGAQRGNSRASSSSMKIPLNKFPGFAKPGTEQYLLAKQLAKPKEKIPIIVGDYGPMWVYPTSTFDCVVADPRKGSKMYGLKSYIEYQLTPTNTNRSVNHRYKHFDWLYERLLVKFGSAIPIPSLPDKQVTGRFEEEFIKMRMERLQAWMTRMCRHPVISESEVFQQFLNFRDEKEWKTGKRKAERDELAGVMIFSTMEPEAPDLDLVEIEQKCEAVGKFTKAMDDGVKELLTVGQEHWKRCTGPLPKEYQKIGKALQSLATVFSSSGYQGETDLNDAITEAGKTYEEIASLVAEQPKKDLHFLMECNHEYKGFLGCFPDIIGTHKGAIEKVKESDKLVATSKITLQDKQNMVKRVSIMSYALQAEMNHFHSNRIYDYNSVIRLYLEQQVQFYETIAEKLRQALSRFPVM
notes: sorting nexin 9, endogenous; also called SNX9; source: endogenous, A549 (Dyn1^KO or Dyn2^KO, reconstituted) lysate
For B1, in the assay with Dyn1a^WT-eGFP, the “ratio of SNX9 binding to Dyn1 versus Dyn2” value was determined as 1.7. In the assay with Dyn1a^S774/8A-eGFP, the “ratio of SNX9 binding to Dyn1^S774/8A versus Dyn1^WT” value was found to be 3.6.

The values are drawn from article PMC5927468, “A noncanonical role for dynamin-1 in regulating early stages of clathrin-mediated endocytosis in non-neuronal cells” (PLoS Biology, 2018).
